Measurements from the supplement of paper PMC7877785.
± gives the uncertainty stated by the source.

Test: self-splicing fitness, log relative to wild type (ln ratio); higher = more splicing; Tetrahymena group I intron in knt gene, E. coli kanamycin selection, DiMSum; sequences stand for … in CUCUCU…GGAGGGAAAAGUUAUCAGGCAUGCACCUGGUAGCUAGUCUUUAAACCAAUAGAUUGCAUCGGUUUAAAAGGCAAGACCGUCAAAUUGCGGGAAAGGGGUCAACAGCCGUUCAGUACCAAGUCUCAGGGGAAACUUUGAGAUGGCCUUGCAAAGGGUAUGGUAAUAAGCUGACGGACAUGGUCCUAACCACGCAGCCAAGUCCUAAGUCAACAGAUCUUCUGUUGAUAUGGAUGCAGUUCACAGACUAAAUGUCGGUCGGGGAAGAUGUAUUCUUCUCAUAAGAUAUAGUCGGACCUCUCCUUAAUGGGAGCUAGCGGAUGAAGUGAUGCAACACUGGAGCCGCUGGGAACUAAUUUGUAUGCGAAAGUAUAUUGAUUAGUUUUGGAGUACUCGUGGUCG
How it was run: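 Fitness was computed with DiMSum as the error-weighted combination of replicate fold changes, kanamycin versus none, each normalised to wild type. The library randomised all eight intron nucleotides of the P1ex region, with the intron placed in the knt kanamycin-resistance gene on pET-22b(+) in E. coli BL21(DE3). Six replicate transformations were grown overnight at 37°C or 30°C on LB agar with or without 25 μg/mL kanamycin, plus 100 μg/mL carbenicillin, 50 μM IPTG and 0.2% rhamnose. Pooled colonies were amplicon-sequenced on an Illumina HiSeq 2500.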

Sequence: UGAUAGCAAUAUUACGGGGU
- self-splicing fitness (ln) (30 °C): -2.68 ± 0.21
- self-splicing fitness (ln) (37 °C): -2.35 ± 0.28

Sequence: AAGAAGCAAUAUUACGCAUU
- self-splicing fitness (ln) (30 °C): -2.89 ± 0.21
- self-splicing fitness (ln) (37 °C): -1.52 ± 0.21

Sequence: GACUAGCAAUAUUACGGGGA
- self-splicing fitness (ln) (30 °C): -2.06 ± 0.11
- self-splicing fitness (ln) (37 °C): -0.995 ± 0.1

Sequence: GACCAGCAAUAUUACGCUGA
- self-splicing fitness (ln) (30 °C): -1.04 ± 0.11
- self-splicing fitness (ln) (37 °C): -0.811 ± 0.097

Sequence: GGUAAGCAAUAUUACGCACG
- self-splicing fitness (ln) (30 °C): 0.408 ± 0.12
- self-splicing fitness (ln) (37 °C): -0.102 ± 0.14

Sequence: AUGGAGCAAUAUUACGUGGC
- self-splicing fitness (ln) (30 °C): -2.39 ± 0.29
- self-splicing fitness (ln) (37 °C): -2.39 ± 0.38

Sequence: GUUAAGCAAUAUUACGCGCG
- self-splicing fitness (ln) (30 °C): -0.983 ± 0.09
- self-splicing fitness (ln) (37 °C): 0.0623 ± 0.14

Sequence: ACUAAGCAAUAUUACGGCAA
- self-splicing fitness (ln) (30 °C): -0.655 ± 0.089
- self-splicing fitness (ln) (37 °C): -0.133 ± 0.1

Sequence: UUGGAGCAAUAUUACGUGUC
- self-splicing fitness (ln) (30 °C): -3.26 ± 0.22
- self-splicing fitness (ln) (37 °C): -2.77 ± 0.38

Sequence: GCCAAGCAAUAUUACGCCUG
- self-splicing fitness (ln) (30 °C): -4.13 ± 0.39
- self-splicing fitness (ln) (37 °C): -1.13 ± 0.19

Sequence: UCGUAGCAAUAUUACGGUGA
- self-splicing fitness (ln) (30 °C): -1.57 ± 0.096
- self-splicing fitness (ln) (37 °C): -1.11 ± 0.1

Sequence: CGGGAGCAAUAUUACGACAG
- self-splicing fitness (ln) (30 °C): -1.7 ± 0.22
- self-splicing fitness (ln) (37 °C): -0.944 ± 0.38

Sequence: AAGCAGCAAUAUUACGCCUG
- self-splicing fitness (ln) (30 °C): -2.41 ± 0.13
- self-splicing fitness (ln) (37 °C): -1.58 ± 0.14

Sequence: ACACAGCAAUAUUACGAGAG
- self-splicing fitness (ln) (30 °C): -3.65 ± 0.14
- self-splicing fitness (ln) (37 °C): -2.37 ± 0.12

Sequence: UCGUAGCAAUAUUACGGAGA
- self-splicing fitness (ln) (30 °C): -2.51 ± 0.18
- self-splicing fitness (ln) (37 °C): -2.53 ± 0.27

Sequence: AUGUAGCAAUAUUACGACCG
- self-splicing fitness (ln) (30 °C): -0.834 ± 0.12
- self-splicing fitness (ln) (37 °C): -0.5 ± 0.17

Sequence: GCGCAGCAAUAUUACGCCUG
- self-splicing fitness (ln) (30 °C): -2.75 ± 0.15
- self-splicing fitness (ln) (37 °C): -1.48 ± 0.15

Sequence: UGAGAGCAAUAUUACGCUAA
- self-splicing fitness (ln) (30 °C): -2.28 ± 0.31
- self-splicing fitness (ln) (37 °C): -2.53 ± 0.31

Sequence: GUAGAGCAAUAUUACGUUUC
- self-splicing fitness (ln) (30 °C): -1.87 ± 0.15
- self-splicing fitness (ln) (37 °C): -0.679 ± 0.17

Sequence: GAUUAGCAAUAUUACGUCCG
- self-splicing fitness (ln) (30 °C): -1.73 ± 0.25
- self-splicing fitness (ln) (37 °C): -2.61 ± 0.41

Sequence: UGUGAGCAAUAUUACGACUG
- self-splicing fitness (ln) (30 °C): -1.04 ± 0.18
- self-splicing fitness (ln) (37 °C): -0.343 ± 0.29

Sequence: GGCGAGCAAUAUUACGGGAU
- self-splicing fitness (ln) (37 °C): -2.21 ± 0.47

Sequence: UCAGAGCAAUAUUACGAGCU
- self-splicing fitness (ln) (30 °C): -2.68 ± 0.38
- self-splicing fitness (ln) (37 °C): -1.58 ± 0.29

Sequence: CAUAAGCAAUAUUACGAACC
- self-splicing fitness (ln) (37 °C): -1.26 ± 0.35

Sequence: UAACAGCAAUAUUACGGGUC
- self-splicing fitness (ln) (30 °C): -3.89 ± 0.17
- self-splicing fitness (ln) (37 °C): -2.62 ± 0.2

Sequence: GACUAGCAAUAUUACGCUUG
- self-splicing fitness (ln) (30 °C): -1.96 ± 0.1
- self-splicing fitness (ln) (37 °C): -1.28 ± 0.13

Sequence: UCUCAGCAAUAUUACGGCGA
- self-splicing fitness (ln) (30 °C): -1.13 ± 0.1
- self-splicing fitness (ln) (37 °C): -0.623 ± 0.11

Sequence: ACAAAGCAAUAUUACGAGGA
- self-splicing fitness (ln) (30 °C): -3.04 ± 0.2
- self-splicing fitness (ln) (37 °C): -2.07 ± 0.19

Sequence: CACGAGCAAUAUUACGUCGC
- self-splicing fitness (ln) (30 °C): -2.82 ± 0.33
- self-splicing fitness (ln) (37 °C): -2.69 ± 0.41

Sequence: UGAGAGCAAUAUUACGUGGG
- self-splicing fitness (ln) (30 °C): -2.83 ± 0.29
- self-splicing fitness (ln) (37 °C): -1.38 ± 0.2

Sequence: CUUCAGCAAUAUUACGUAUG
- self-splicing fitness (ln) (30 °C): -0.871 ± 0.066
- self-splicing fitness (ln) (37 °C): -0.276 ± 0.074

Sequence: CUCAAGCAAUAUUACGCCCA
- self-splicing fitness (ln) (30 °C): -3.18 ± 0.4
- self-splicing fitness (ln) (37 °C): -2.01 ± 0.47

Sequence: GAACAGCAAUAUUACGGCCU
- self-splicing fitness (ln) (30 °C): -1.14 ± 0.11
- self-splicing fitness (ln) (37 °C): -0.067 ± 0.14

Sequence: GCAGAGCAAUAUUACGUGUA
- self-splicing fitness (ln) (30 °C): -3.61 ± 0.35
- self-splicing fitness (ln) (37 °C): -1.17 ± 0.16

Sequence: AAUCAGCAAUAUUACGCUGU
- self-splicing fitness (ln) (30 °C): -3.28 ± 0.14
- self-splicing fitness (ln) (37 °C): -1.59 ± 0.11

Sequence: ACGCAGCAAUAUUACGGUUA
- self-splicing fitness (ln) (30 °C): -1.13 ± 0.077
- self-splicing fitness (ln) (37 °C): -1.04 ± 0.062

Sequence: CCGCAGCAAUAUUACGUGGC
- self-splicing fitness (ln) (30 °C): -3.29 ± 0.16
- self-splicing fitness (ln) (37 °C): -2.3 ± 0.2

Sequence: AAGUAGCAAUAUUACGAGGA
- self-splicing fitness (ln) (30 °C): -2.04 ± 0.32
- self-splicing fitness (ln) (37 °C): -2.12 ± 0.34

Sequence: ACGAAGCAAUAUUACGAUUA
- self-splicing fitness (ln) (30 °C): -1.36 ± 0.077
- self-splicing fitness (ln) (37 °C): -0.917 ± 0.072

Sequence: GCAGAGCAAUAUUACGUUCU
- self-splicing fitness (ln) (30 °C): -2.78 ± 0.24
- self-splicing fitness (ln) (37 °C): -2.18 ± 0.29

Sequence: CAACAGCAAUAUUACGUAAG
- self-splicing fitness (ln) (30 °C): -0.309 ± 0.044
- self-splicing fitness (ln) (37 °C): 0.376 ± 0.055

Sequence: GCCUAGCAAUAUUACGGGGG
- self-splicing fitness (ln) (30 °C): -2.92 ± 0.22
- self-splicing fitness (ln) (37 °C): -1.34 ± 0.13

Sequence: CGCAAGCAAUAUUACGAUUU
- self-splicing fitness (ln) (30 °C): -2.45 ± 0.16
- self-splicing fitness (ln) (37 °C): -2.33 ± 0.18

Sequence: GUUCAGCAAUAUUACGAGUG
- self-splicing fitness (ln) (30 °C): -1.59 ± 0.18
- self-splicing fitness (ln) (37 °C): -0.332 ± 0.14

Sequence: CGGAAGCAAUAUUACGGCCC
- self-splicing fitness (ln) (30 °C): 0.0304 ± 0.18
- self-splicing fitness (ln) (37 °C): 0.0512 ± 0.23

Sequence: AAGGAGCAAUAUUACGCUGA
- self-splicing fitness (ln) (30 °C): -3.54 ± 0.23
- self-splicing fitness (ln) (37 °C): -1.44 ± 0.15

Sequence: ACUCAGCAAUAUUACGCUUU
- self-splicing fitness (ln) (30 °C): -1.85 ± 0.095
- self-splicing fitness (ln) (37 °C): -0.42 ± 0.11

Sequence: GCCCAGCAAUAUUACGGAGA
- self-splicing fitness (ln) (30 °C): -0.433 ± 0.062
- self-splicing fitness (ln) (37 °C): -0.0159 ± 0.072
